Results as given in the RNAGym collection of RNA variant scans (doi:10.7554/elife.80360).

B1: HDV Ribozyme (parent)
chain: GGCCGGCAUGGUCCCAGCCUCCUCGCUGGCGCCGGCUGGGCAACAUUCCGAGGGGACCGUCCCCUCGGUAAUGGCGAAUGGGACCCA

Variants of: B1
Assay: self-cleavage, relative activity (ratio to wild type); higher = more cleavage; co-transcriptional

Variant | self-cleavage
C62G A87G | 0.716
C61U G82C | 0.281
C62U A77U | 0.429
C62U U69A | 1.24
U60G G74U | 0.665
C61A C66U | 1.1
C61A C66A | 0.992
C61A C66G | 0.942
C61G C75U | 0.101
C62A G67U | 0.464
C62A G67A | 0.578
C62A G67C | 0.78
U60G C86A | 1.01
U60G C86U | 0.959
C62A A78U | 0.185
C62A A78C | 0.101
C62A A78G | 0.78
C62U U79G | 0.831
C62U U79C | 0.432
C62U A78G | 0.475
C62U U65A | 1.08
C61G U69A | 0.789
C61G U69G | 0.831
C61U A70C | 0.892

Variant | self-cleavage
C61U A70G | 1.01
C61U A77U | 0.475
C62U C85A | 0.847
C62U C85G | 0.892
C62U C85U | 0.964
C61G C64A | 0.582
C61G C64G | 0.527
C62U C63U | 1.11
C62U C63A | 0.927
C62U C63G | 0.654
C61G A77G | 0.831
C61G A77C | 0.203
C61G C85U | 1.04
C61G C85G | 0.906
C61G C85A | 0.935
C63A C66A | 0.302
C63A C66U | 0.814
C63A C66G | 0.494
U60G G81C | 0.268
U60G G81A | 0.269
C61A U65A | 0.774
C61A U65G | 0.92
C63G C86G | 0.95
C63A G67A | 0.35

Variant | self-cleavage
C63A G67C | 0.544
C63A G67U | 0.451
C62U A87U | 1.08
C61G C66G | 0.745
C61G C66A | 0.674
C62U G68A | 0.946
C62U G82U | 0.402
C61A G67C | 0.831
C61A G67U | 1.12
C61A G67A | 0.9
U60G C84A | 0.752
U60G C84G | 0.902
U60G C84U | 0.798
C61G G68A | 1.02
C61A C86G | 0.908
C61G C86A | 1.03
C62G C84G | 0.482
C61G G74U | 0.466
C61G C62G | 1.05
C62A C85A | 0.767
C63A G76A | 0.875
C63A G76C | 0.976
C63A G76U | 1.15
U60G C62G | 0.703

Variant | self-cleavage
C63A C85U | 0.911
C63A C85A | 0.618
C61U G81U | 0.273
C61U G81C | 0.29
C62A C86A | 1.01
C61U C75U | 0.254
C61U C75G | 0.151
C61U C75A | 0.201
C62U C66A | 0.815
C62U C66G | 0.746
C63G A83G | 0.519
C61A C75G | 0.177
C61A C75U | 0.178
U60G G80A | 0.286
U60G G80C | 0.141
C62A C84A | 0.862
C62A C84G | 0.764
C61G U72G | 0.332
C61G U72A | 0.457
C61G U72C | 0.401
C61G A83U | 0.151
C61G A83C | 0.364
C62A C75A | 0.0314
C61A A83U | 0.47

Variant | self-cleavage
C61A A78C | 0.145
C62U G76A | 1.12
C62U G76U | 1.06
C61A A87U | 0.978
C61A A87C | 1.07
C61A A87G | 1
C61U C63G | 0.243
C61U C63A | 0.758
U60G U65G | 0.883
C61A G73U | 0.353
C61A G73A | 0.641
C62A U69A | 0.997
C62A U69C | 0.882
C62A U69G | 1.03
C63A C86A | 1.05
C63A U72C | 0.532
C63A U72G | 0.369
C63A U72A | 0.542
C63G C75A | 0.111
C63G C75G | 0.0489
C62G G81U | 0.133
C62G U72C | 0.525
C62G U72G | 0.277
C62G U72A | 0.467

Variant | self-cleavage
C62U U72G | 0.649
C62U U72A | 0.441
C63A C75U | 0.0906
C63A C75A | 0.338
C62G G74U | 0.372
C62G G74A | 0.402
C62G G74C | 0.172
C61A G81U | 0.347
C61A G81A | 0.354
C63G C66G | 0.201
C63G C66A | 0.289
C62G G82A | 0.267
C62A A83U | 0.494
C62A A83G | 0.683
C61G A87G | 0.994
C61G A87U | 0.943
U60G C75G | 0.119
U60G C75A | 0.229
U60G C75U | 0.231
C63A A78U | 0.269
C63A A78G | 0.404
C62G G80U | 0.185
C62G G80A | 0.185
C61A C62A | 0.904

Variant | self-cleavage
U60G G68C | 0.965
U60G G68A | 1.02
U60G C85U | 1.15
U60G C85A | 0.767
U60G C85G | 1.09
C62A C63U | 0.831
C62G G67C | 0.147
C61U G80C | 0.115
C61G G73U | 0.327
C61G G73C | 0.264
C63G C84A | 1.06
C63G C84U | 0.629
C62A C66A | 0.32
C62A C66G | 0.623
C61U U65G | 0.864
C61U U65A | 0.616
C61U G73C | 0.629
C61U G73U | 0.383
C61U A71G | 0.997
C61U A71U | 1.02
C63G A78C | 0.101
C62G G73U | 0.193
C62G C63A | 0.639
C62G C63U | 0.604

Variant | self-cleavage
C62G C63G | 0.706
C61G G80A | 0.434
C63G C85G | 1.02
C63G C85U | 0.92
C61U G76A | 1.19
C61U G76U | 1.06
C61U G76C | 1.05
C62U C64G | 0.482
C62U C64U | 0.796
C62U C64A | 0.845
C62U G80C | 0.281
C62U G80A | 0.348
C62U G80U | 0.253
C62A C64U | 0.892
C62A G74C | 0.113
C62G C85G | 0.911
C61G C63U | 1.02
C61G C63A | 0.718
C62G U69C | 0.534
C63A U79C | 0.455
C63A U79A | 0.636
C63A G74U | 0.515
C63A G74C | 0.312
C63A G74A | 0.478

Variant | self-cleavage
C62G G68C | 0.196
U60G U72G | 0.646
C61G A78C | 0.177
C61G A78U | 0.219
C63G A70C | 0.415
C62G A78G | 0.745
C62G A78U | 0.297
C63G A87C | 0.737
C63G A87G | 0.858
C63A A87C | 1
C63A A87U | 1.03
C63A A87G | 0.946
C61A G82U | 0.507
C63A C84G | 0.759
C63A C84A | 0.96
C62U C86G | 0.831
C62U C86A | 0.82
C61U C86G | 0.847
C61U C86U | 1.03
C62U G74U | 0.679
C61A U72A | 0.745
C61U C64A | 0.89
C62G A70G | 0.578
C62G A70C | 0.554

Variant | self-cleavage
C62A A70U | 0.955
C61G U79C | 0.499
C61G U79A | 0.739
C62U C75A | 0.166
C62U C75G | 0.406
C62A G82A | 0.35
C62U A83G | 0.818
C62G A71C | 0.443
C62G A71U | 0.489
U60G G76A | 1.08
C63A U69A | 0.965
C63A U69G | 0.884
C63A U69C | 1.12
C61A G68A | 1.08
C63A G80A | 0.388
C62U A71C | 0.812
C62U A71G | 0.997
C61U C66A | 0.722
C61U C84U | 0.636
C62U G67A | 1.12
C62A G80A | 0.282
C62A G80C | 0.0594
C62A U72A | 0.54
C62A U72G | 0.617

Variant | self-cleavage
C62A U72C | 0.38
C61A U79A | 0.642
C61A U79G | 1.14
C62U G73C | 0.354
C61A | 1.02
C61U | 1.01
C61G | 0.986
U60G C63G | 0.293
U60G C63U | 0.982
C61A C64A | 0.96
C61A C64G | 0.791
C61A C84A | 0.831
C61A C84U | 0.831
C62G U79A | 0.489
C62G U79G | 1.03
U60G U69A | 0.965
C61G G81U | 0.358
C61U U72A | 0.703
C61U U72C | 0.356
C63A G82A | 0.408
C63A G82U | 0.467
C63A C64G | 0.506
C63A C64U | 0.903
C61A C85G | 0.988

Variant | self-cleavage
U60G G82C | 0.133
U60G G82U | 0.309
U60G C66U | 1.08
C61A A71C | 1.12
C61A C63G | 0.499
C61A C63U | 1.07
C61A C63A | 0.689
C62A U79A | 0.636
C62A U79C | 0.339
C62A G73C | 0.465
C62A G73A | 0.545
C62A A77U | 0.45
C62A A77G | 1.17
C62A A87U | 0.984
C61U A83G | 0.692
C62A G76A | 1.13
C61U U79A | 0.88
C61U G74U | 0.554
C61A G74U | 0.63
C61A G74A | 0.561
C62G C75A | 0.17
C62G C75G | 0.26
C62U C84A | 1.14
C62U C84G | 0.692

Variant | self-cleavage
C62U C84U | 0.819
C61U A78C | 0.182
C61G G76C | 0.967
C63A U65G | 0.914
C63A U65C | 0.525
C63A U65A | 0.427
C61G A70G | 0.844
C61A G76A | 1.02
C61A G76C | 1.08
C63G A77C | 0.58
C63G A77U | 0.277
C63G A77G | 0.268
C61G G82C | 0.233
C61G G82A | 0.284
C62U G81U | 0.529
C62U G81C | 0.215
C61G U65G | 0.72
U60G C64A | 1.07
C62G C66G | 0.249
C61U C85G | 0.981
C61U C85A | 1.07
C62G U65G | 0.32
C61U C62U | 0.644
C61U C62G | 0.694

Variant | self-cleavage
C61U C62A | 0.978
C61U U69C | 0.972
C61U U69A | 0.914
C63A A77C | 0.268
C63A A77U | 0.356
C63G G67C | 0.342
C63G G67A | 0.372
C63A A83G | 0.712
C63A A71U | 1.11
C63A A71G | 0.504
C63A G68A | 0.801
C63A G68U | 0.764
C62A U65G | 0.359
C61U G68U | 0.95
C61U G68C | 0.581
C61A G80C | 0.201
C61A G80U | 0.203
C61A G80A | 0.41
C62A G81A | 0.332
C63A G81U | 0.244
C63A G81C | 0.188
U60G U79G | 0.831
